According to article doi:10.1101/2022.08.30.505748 (bioRxiv, 2022):
Positions count from the first letter of the chain named. Numbers in names are those of the source. Read-outs that look alike come from different tables or passages of the source.

What was measured:
[1] = target: activated caspase-3 (WT), His6-tagged, RED-tris-NTA labelled (UniProt P42574); assay: MST
[2] = target: activated caspase-9, His6-tagged, RED-tris-NTA labelled (UniProt P55211); assay: MST
[3] = target: activated caspase-7, His6-tagged, RED-tris-NTA labelled (UniProt P55210); assay: MST
[4] = target: BIRC6 (Baculoviral IAP repeat-containing protein 6), full-length, wild-type, tag removed (UniProt Q9NR09); assay: cryo-EM structure; details: remark: other sources report otherwise
[5] = target: Alexa555-SMAC (WT), a.a. 56-239 with a C-terminal cysteine (UniProt Q9NR28); assay: fluorescence polarisation
[6] = target: BIRC6 (Baculoviral IAP repeat-containing protein 6), full-length, wild-type, tag removed (UniProt Q9NR09); assay: SEC-MALS; details: remark: other sources report otherwise
[7] = target: BIRC6 (Baculoviral IAP repeat-containing protein 6), full-length, wild-type, tag removed (UniProt Q9NR09); assay: cryo-EM structure; details: remark: other sources report otherwise; remark: listed apart in the source
[8] = target: T1, BIRC6 (Baculoviral IAP repeat-containing protein 6), full-length, wild-type, tag removed (UniProt Q9NR09 1-4857); assay: fluorescence polarisation
cryo-EM structure = target: the molecule itself; assay: cryo-EM structure
[9] = target: T1, BIRC6 (Baculoviral IAP …); assay: fluorescence polarisation; remark: listed apart in the source

T1 sequence (Q9NR09 whole entry): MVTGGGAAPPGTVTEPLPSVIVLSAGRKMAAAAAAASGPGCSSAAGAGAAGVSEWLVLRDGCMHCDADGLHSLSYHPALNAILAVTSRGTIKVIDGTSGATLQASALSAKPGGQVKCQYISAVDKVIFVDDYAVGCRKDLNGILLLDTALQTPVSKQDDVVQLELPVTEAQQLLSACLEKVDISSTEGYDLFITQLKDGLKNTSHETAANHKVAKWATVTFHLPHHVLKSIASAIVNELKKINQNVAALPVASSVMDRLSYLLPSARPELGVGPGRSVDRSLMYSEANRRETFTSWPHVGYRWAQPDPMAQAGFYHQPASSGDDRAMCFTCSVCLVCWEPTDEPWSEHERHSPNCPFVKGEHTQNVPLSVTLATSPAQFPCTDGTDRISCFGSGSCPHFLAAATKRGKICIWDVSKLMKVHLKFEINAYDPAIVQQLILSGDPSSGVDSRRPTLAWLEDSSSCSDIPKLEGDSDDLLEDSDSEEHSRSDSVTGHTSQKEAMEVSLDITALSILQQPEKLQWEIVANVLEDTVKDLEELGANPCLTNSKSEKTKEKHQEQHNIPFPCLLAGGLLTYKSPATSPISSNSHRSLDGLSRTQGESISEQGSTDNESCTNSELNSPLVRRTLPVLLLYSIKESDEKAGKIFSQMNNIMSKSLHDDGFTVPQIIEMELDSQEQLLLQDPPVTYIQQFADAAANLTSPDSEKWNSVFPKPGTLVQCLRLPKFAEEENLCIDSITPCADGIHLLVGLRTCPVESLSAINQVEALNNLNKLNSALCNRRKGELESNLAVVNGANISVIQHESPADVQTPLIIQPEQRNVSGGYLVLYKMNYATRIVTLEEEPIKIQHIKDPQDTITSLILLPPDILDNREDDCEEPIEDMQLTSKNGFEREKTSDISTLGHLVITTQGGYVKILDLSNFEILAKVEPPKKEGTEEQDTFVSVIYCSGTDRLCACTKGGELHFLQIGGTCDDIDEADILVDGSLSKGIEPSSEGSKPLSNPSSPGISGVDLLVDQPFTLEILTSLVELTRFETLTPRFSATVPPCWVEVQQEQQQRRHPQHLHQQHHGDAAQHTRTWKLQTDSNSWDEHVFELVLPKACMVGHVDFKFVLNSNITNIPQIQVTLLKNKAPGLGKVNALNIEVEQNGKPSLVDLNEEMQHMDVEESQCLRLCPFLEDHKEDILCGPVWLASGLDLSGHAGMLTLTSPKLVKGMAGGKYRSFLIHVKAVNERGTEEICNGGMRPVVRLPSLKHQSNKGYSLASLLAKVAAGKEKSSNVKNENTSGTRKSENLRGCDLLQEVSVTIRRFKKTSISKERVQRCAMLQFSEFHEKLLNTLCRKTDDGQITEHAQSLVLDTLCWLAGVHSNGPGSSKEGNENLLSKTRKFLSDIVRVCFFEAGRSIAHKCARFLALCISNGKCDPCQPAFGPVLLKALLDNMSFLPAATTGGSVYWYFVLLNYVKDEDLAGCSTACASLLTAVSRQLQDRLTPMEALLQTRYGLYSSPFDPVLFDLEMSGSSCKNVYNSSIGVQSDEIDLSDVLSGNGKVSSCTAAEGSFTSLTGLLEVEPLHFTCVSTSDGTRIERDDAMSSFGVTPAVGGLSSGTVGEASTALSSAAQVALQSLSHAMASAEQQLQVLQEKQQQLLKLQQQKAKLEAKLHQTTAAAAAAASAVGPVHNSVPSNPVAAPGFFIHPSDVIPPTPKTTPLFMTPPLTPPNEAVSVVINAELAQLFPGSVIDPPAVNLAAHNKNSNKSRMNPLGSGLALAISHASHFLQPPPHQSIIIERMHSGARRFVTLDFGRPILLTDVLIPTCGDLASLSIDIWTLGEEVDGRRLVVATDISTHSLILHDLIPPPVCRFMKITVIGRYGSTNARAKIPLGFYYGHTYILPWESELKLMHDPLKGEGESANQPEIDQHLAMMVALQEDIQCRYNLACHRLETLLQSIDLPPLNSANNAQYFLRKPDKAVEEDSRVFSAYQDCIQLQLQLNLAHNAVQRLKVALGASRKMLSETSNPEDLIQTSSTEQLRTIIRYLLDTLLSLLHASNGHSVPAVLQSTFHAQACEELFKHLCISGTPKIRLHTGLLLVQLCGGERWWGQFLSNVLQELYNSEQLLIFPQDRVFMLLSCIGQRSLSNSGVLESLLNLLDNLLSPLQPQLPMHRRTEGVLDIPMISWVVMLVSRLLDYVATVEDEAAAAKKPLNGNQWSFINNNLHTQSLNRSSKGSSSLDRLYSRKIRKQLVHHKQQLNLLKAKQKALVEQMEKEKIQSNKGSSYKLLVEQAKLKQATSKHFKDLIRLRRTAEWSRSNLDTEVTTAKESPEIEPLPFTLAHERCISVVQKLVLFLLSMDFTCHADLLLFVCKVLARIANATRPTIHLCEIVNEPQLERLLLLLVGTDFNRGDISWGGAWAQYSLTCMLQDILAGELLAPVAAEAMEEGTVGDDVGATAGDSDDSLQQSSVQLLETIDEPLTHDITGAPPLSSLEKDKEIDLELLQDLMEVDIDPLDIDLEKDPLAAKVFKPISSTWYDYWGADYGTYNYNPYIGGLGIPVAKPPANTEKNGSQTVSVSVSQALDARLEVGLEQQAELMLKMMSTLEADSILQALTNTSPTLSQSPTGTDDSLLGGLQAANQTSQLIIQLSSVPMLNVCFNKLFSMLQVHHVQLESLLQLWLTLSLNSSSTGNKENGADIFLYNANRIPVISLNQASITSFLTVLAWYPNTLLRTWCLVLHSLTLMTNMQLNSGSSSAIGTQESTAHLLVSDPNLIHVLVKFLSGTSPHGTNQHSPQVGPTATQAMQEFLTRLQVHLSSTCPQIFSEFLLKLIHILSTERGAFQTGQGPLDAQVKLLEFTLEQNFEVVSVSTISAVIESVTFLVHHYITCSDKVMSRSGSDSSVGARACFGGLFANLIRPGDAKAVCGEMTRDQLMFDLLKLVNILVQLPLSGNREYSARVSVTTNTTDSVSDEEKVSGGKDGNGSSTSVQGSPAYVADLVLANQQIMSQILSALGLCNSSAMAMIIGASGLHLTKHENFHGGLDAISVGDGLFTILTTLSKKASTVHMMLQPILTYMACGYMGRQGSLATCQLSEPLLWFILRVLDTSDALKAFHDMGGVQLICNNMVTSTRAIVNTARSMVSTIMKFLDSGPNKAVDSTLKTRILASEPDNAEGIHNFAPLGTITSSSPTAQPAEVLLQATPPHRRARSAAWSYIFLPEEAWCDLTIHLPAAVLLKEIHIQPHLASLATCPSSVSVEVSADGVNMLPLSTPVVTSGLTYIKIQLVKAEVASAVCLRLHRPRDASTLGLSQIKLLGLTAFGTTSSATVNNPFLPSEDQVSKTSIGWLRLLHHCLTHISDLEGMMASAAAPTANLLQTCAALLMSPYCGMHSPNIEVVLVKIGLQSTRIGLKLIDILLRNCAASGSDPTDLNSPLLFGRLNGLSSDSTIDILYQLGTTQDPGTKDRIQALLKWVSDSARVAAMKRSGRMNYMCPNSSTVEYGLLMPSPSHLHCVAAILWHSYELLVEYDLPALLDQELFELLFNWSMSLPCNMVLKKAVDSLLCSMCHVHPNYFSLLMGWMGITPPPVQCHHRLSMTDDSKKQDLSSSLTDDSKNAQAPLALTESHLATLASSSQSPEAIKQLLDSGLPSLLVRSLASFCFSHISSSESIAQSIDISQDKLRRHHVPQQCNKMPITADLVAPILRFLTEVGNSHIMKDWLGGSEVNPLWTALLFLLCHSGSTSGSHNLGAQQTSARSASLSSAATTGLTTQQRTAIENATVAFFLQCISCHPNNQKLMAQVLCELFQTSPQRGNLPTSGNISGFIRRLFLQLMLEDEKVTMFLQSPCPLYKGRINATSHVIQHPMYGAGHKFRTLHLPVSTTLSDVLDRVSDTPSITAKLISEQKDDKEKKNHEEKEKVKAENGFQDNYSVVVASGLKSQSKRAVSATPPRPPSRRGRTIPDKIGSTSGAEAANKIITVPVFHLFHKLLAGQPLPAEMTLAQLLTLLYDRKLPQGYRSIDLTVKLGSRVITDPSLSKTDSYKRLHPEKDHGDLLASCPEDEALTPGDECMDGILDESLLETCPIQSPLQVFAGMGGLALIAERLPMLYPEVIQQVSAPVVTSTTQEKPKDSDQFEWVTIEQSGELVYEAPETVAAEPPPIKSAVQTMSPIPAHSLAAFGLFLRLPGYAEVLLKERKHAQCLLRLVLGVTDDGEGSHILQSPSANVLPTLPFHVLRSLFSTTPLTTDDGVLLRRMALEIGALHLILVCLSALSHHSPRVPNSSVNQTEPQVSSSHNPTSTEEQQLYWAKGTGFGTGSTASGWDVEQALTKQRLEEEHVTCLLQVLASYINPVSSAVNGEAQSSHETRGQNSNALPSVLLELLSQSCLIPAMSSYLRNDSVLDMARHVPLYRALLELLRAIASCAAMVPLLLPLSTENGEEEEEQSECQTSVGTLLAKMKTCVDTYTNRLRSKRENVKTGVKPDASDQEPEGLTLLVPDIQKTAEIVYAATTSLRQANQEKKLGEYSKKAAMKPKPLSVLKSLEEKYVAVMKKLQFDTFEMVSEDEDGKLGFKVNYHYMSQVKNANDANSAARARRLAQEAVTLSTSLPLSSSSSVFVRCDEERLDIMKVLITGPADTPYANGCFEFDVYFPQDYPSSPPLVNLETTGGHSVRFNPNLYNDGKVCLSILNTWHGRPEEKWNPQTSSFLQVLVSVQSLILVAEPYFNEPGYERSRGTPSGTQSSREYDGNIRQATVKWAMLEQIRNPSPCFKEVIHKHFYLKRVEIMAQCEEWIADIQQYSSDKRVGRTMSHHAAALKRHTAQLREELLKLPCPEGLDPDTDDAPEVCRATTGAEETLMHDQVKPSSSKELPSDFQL
Chain of activated caspase-3 (WT), His6-tagged, RED-tris-NTA labelled (P42574 whole entry): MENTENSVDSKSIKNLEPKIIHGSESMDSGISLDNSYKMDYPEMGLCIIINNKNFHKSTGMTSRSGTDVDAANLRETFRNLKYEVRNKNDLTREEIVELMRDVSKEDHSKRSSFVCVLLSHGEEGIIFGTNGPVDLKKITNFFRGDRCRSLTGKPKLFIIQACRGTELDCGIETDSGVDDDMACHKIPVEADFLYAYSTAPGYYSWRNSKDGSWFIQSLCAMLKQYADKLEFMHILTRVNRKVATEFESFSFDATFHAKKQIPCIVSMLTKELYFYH

“BIRC6 (Baculoviral IAP repeat-containing protein 6), full-length, wild-type, tag removed (from UniProt Q9NR09 1-4857) (enzyme)” gave a Kd [1] of 8.9 nM, a Kd [2] of 46.4 nM and a Kd [3] of 17.1 nM.

“BIRC6 (Baculoviral IAP repeat-containing protein 6), full-length, wild-type, tag removed, Q9NR09 1-4857” gave a stoichiometry N [4] of 2, a fold greater affinity than for monomeric SMAC (V81D) [5] greater than 10 fold and a stoichiometry N [6] of 2. The stoichiometry N [7] was 2.

B1: Alexa555-SMAC (WT), a.a. 56-239 with a C-terminal cysteine (natural protein)
chain: AVPIAQKSEPHSLSSEALMRRAVSLVTDSTSTFLSQTTYALIEAITEYTKAVYTLTSLYRQYTSLLGKMNSEEEDEVWQVIIGARAEMTSKHQEYLKLETTWMTAVGLSEMAAEAAYQTGADQASITARNHIQLVKLQVEEVHQLSRKAETKLAEAQIEELRQKTQEEGEERAESEQEAYLREDC
modifications: Alexa Fluor 555 on the C-terminal cysteine
B1: binds [8].

Work on AVPIAQKSEC (Cy3 on the C-terminal cysteine; C-terminal amide) [Cy3-labelled SMAC N-terminal peptide, AVPIAQKSEC(Cy3)-Am] yielded a Kd [8] of 35.6 ± 3 nM.

B2: Alexa 555 monomeric SMAC (V81D), a.a. 56-239 with a C-terminal cysteine (natural protein)
chain: B1 chain with V26D
modifications: Alexa Fluor 555 on the C-terminal cysteine
Work on B2 yielded a Kd [8] of 12.1 ± 1.5 nM.

B3: SMAC (second mitochondria-derived activator of caspase), a.a. 56-239, wild-type, unlabelled (natural protein)
chain: AVPIAQKSEPHSLSSEALMRRAVSLVTDSTSTFLSQTTYALIEAITEYTKAVYTLTSLYRQYTSLLGKMNSEEEDEVWQVIIGARAEMTSKHQEYLKLETTWMTAVGLSEMAAEAAYQTGADQASITARNHIQLVKLQVEEVHQLSRKAETKLAEAQIEELRQKTQEEGEERAESEQEAYLRED
In the case of B3, the “stoichiometry N” value (cryo-EM structure) is reported as 2, the IC50 [9] is reported as 8.3 nM and the Kd [9] is reported as roughly 0.6 nM.
